Results as given in patent US20110318339A1 (FABRUS, published 2011).

B1: Fab VH5-51_IGHD5-18*01>3_IGHJ4*01 & V3-4_IGLJ1*01 (Fab, V domains shown)
VH: EVQLVQSGAEVKKPGESLKISCKGSGYSFTSYWIGWVRQMPGKGLEWMGIIYPGDSDTRYSPSFQGQVTISADKSISTAYLQWSSLKASDTAMYYCARRGYSYGYDYFDYWGQGTLVTVSS
VL: QTVVTQEPSFSVSPGGTVTLTCGLSSGSVSTSYYPSWYQQTPGQAPRTLIYSTNTRSSGVPDRFSGSILGNKAALTITGAQADDESDYYCVLYMGSGISYVFGTGTKVTVL
notes: Fab made in E. coli: VH on CH1 with His6 and Flag tags (Plasmid A), VL on lambda CL (Plasmid E); also called wildtype; parent
B2: Fab VH5-51_IGHD5-18*01>3_IGHJ4*01 G100K/G104T G24T/S28R/G35V & V3-4_IGLJ1*01 V91L/S96P S52Q (Fab, V domains shown)
VH: EVQLVQSGAEVKKPGESLKISCKTSGYRFTSYWIVWVRQMPGKGLEWMGIIYPGDSDTRYSPSFQGQVTISADKSISTAYLQWSSLKASDTAMYYCARRKYSYTYDYFDYWGQGTLVTVSS
VL: QTVVTQEPSFSVSPGGTVTLTCGLSSGSVSTSYYPSWYQQTPGQAPRTLIYQTNTRSSGVPDRFSGSILGNKAALTITGAQADDESDYYCLLYMGPGISYVFGTGTKVTVL
notes: Fab made in E. coli: VH on CH1 with His6 and Flag tags (Plasmid A), VL on lambda CL (Plasmid E); also called H: KT TRV & L: LP S52Q
B3: Fab VH5-51_IGHD5-18*01>3_IGHJ4*01 G100K/G104T G24T/S28R/G35V & V3-4_IGLJ1*01 V91L/S96P S52L (Fab, V domains shown)
VH: EVQLVQSGAEVKKPGESLKISCKTSGYRFTSYWIVWVRQMPGKGLEWMGIIYPGDSDTRYSPSFQGQVTISADKSISTAYLQWSSLKASDTAMYYCARRKYSYTYDYFDYWGQGTLVTVSS
VL: QTVVTQEPSFSVSPGGTVTLTCGLSSGSVSTSYYPSWYQQTPGQAPRTLIYLTNTRSSGVPDRFSGSILGNKAALTITGAQADDESDYYCLLYMGPGISYVFGTGTKVTVL
notes: Fab made in E. coli: VH on CH1 with His6 and Flag tags (Plasmid A), VL on lambda CL (Plasmid E); also called H: KT TRV & L: LP S52L
B4: Fab VH5-51_IGHD5-18*01>3_IGHJ4*01 G100K/G104T G24T/S28R/G35V & V3-4_IGLJ1*01 V91L/S96P S52N (Fab, V domains shown)
VH: EVQLVQSGAEVKKPGESLKISCKTSGYRFTSYWIVWVRQMPGKGLEWMGIIYPGDSDTRYSPSFQGQVTISADKSISTAYLQWSSLKASDTAMYYCARRKYSYTYDYFDYWGQGTLVTVSS
VL: QTVVTQEPSFSVSPGGTVTLTCGLSSGSVSTSYYPSWYQQTPGQAPRTLIYNTNTRSSGVPDRFSGSILGNKAALTITGAQADDESDYYCLLYMGPGISYVFGTGTKVTVL
notes: Fab made in E. coli: VH on CH1 with His6 and Flag tags (Plasmid A), VL on lambda CL (Plasmid E); also called H: KT TRV & L: LP S52N
B5: Fab VH5-51_IGHD5-18*01>3_IGHJ4*01 G100K/G104T G24T/S28R/G35V & V3-4_IGLJ1*01 V91L/S96P S52I (Fab, V domains shown)
VH: EVQLVQSGAEVKKPGESLKISCKTSGYRFTSYWIVWVRQMPGKGLEWMGIIYPGDSDTRYSPSFQGQVTISADKSISTAYLQWSSLKASDTAMYYCARRKYSYTYDYFDYWGQGTLVTVSS
VL: QTVVTQEPSFSVSPGGTVTLTCGLSSGSVSTSYYPSWYQQTPGQAPRTLIYITNTRSSGVPDRFSGSILGNKAALTITGAQADDESDYYCLLYMGPGISYVFGTGTKVTVL
notes: Fab made in E. coli: VH on CH1 with His6 and Flag tags (Plasmid A), VL on lambda CL (Plasmid E); also called H: KT TRV & L: LP S52I
B6: Fab VH5-51_IGHD5-18*01>3_IGHJ4*01 G100K/G104T G24T/S28R/G35V & V3-4_IGLJ1*01 V91L/S96P S52T (Fab, V domains shown)
VH: EVQLVQSGAEVKKPGESLKISCKTSGYRFTSYWIVWVRQMPGKGLEWMGIIYPGDSDTRYSPSFQGQVTISADKSISTAYLQWSSLKASDTAMYYCARRKYSYTYDYFDYWGQGTLVTVSS
VL: QTVVTQEPSFSVSPGGTVTLTCGLSSGSVSTSYYPSWYQQTPGQAPRTLIYTTNTRSSGVPDRFSGSILGNKAALTITGAQADDESDYYCLLYMGPGISYVFGTGTKVTVL
notes: Fab made in E. coli: VH on CH1 with His6 and Flag tags (Plasmid A), VL on lambda CL (Plasmid E); also called H: KT TRV & L: LP S52T
B7: Fab VH5-51_IGHD5-18*01>3_IGHJ4*01 G100K/G104T G24T/S28R/G35V & V3-4_IGLJ1*01 V91L/S96P S52V (Fab, V domains shown)
VH: EVQLVQSGAEVKKPGESLKISCKTSGYRFTSYWIVWVRQMPGKGLEWMGIIYPGDSDTRYSPSFQGQVTISADKSISTAYLQWSSLKASDTAMYYCARRKYSYTYDYFDYWGQGTLVTVSS
VL: QTVVTQEPSFSVSPGGTVTLTCGLSSGSVSTSYYPSWYQQTPGQAPRTLIYVTNTRSSGVPDRFSGSILGNKAALTITGAQADDESDYYCLLYMGPGISYVFGTGTKVTVL
notes: Fab made in E. coli: VH on CH1 with His6 and Flag tags (Plasmid A), VL on lambda CL (Plasmid E); also called H: KT TRV & L: LP S52V
B8: Fab VH5-51_IGHD5-18*01>3_IGHJ4*01 G100K/G104T G24T/S28R/G35V & V3-4_IGLJ1*01 V91L/S96P S52K (Fab, V domains shown)
VH: EVQLVQSGAEVKKPGESLKISCKTSGYRFTSYWIVWVRQMPGKGLEWMGIIYPGDSDTRYSPSFQGQVTISADKSISTAYLQWSSLKASDTAMYYCARRKYSYTYDYFDYWGQGTLVTVSS
VL: QTVVTQEPSFSVSPGGTVTLTCGLSSGSVSTSYYPSWYQQTPGQAPRTLIYKTNTRSSGVPDRFSGSILGNKAALTITGAQADDESDYYCLLYMGPGISYVFGTGTKVTVL
notes: Fab made in E. coli: VH on CH1 with His6 and Flag tags (Plasmid A), VL on lambda CL (Plasmid E); also called H: KT TRV & L: LP S52K
B9: Fab VH5-51_IGHD5-18*01>3_IGHJ4*01 G100K/G104T G24T/S28R/G35V & V3-4_IGLJ1*01 V91L/S96P S52F (Fab, V domains shown)
VH: EVQLVQSGAEVKKPGESLKISCKTSGYRFTSYWIVWVRQMPGKGLEWMGIIYPGDSDTRYSPSFQGQVTISADKSISTAYLQWSSLKASDTAMYYCARRKYSYTYDYFDYWGQGTLVTVSS
VL: QTVVTQEPSFSVSPGGTVTLTCGLSSGSVSTSYYPSWYQQTPGQAPRTLIYFTNTRSSGVPDRFSGSILGNKAALTITGAQADDESDYYCLLYMGPGISYVFGTGTKVTVL
notes: Fab made in E. coli: VH on CH1 with His6 and Flag tags (Plasmid A), VL on lambda CL (Plasmid E); also called H: KT TRV & L: LP S52F
B10: Fab VH5-51_IGHD5-18*01>3_IGHJ4*01 G100K/G104T G24T/S28R/G35V & V3-4_IGLJ1*01 V91L/S96P S52Y (Fab, V domains shown)
VH: EVQLVQSGAEVKKPGESLKISCKTSGYRFTSYWIVWVRQMPGKGLEWMGIIYPGDSDTRYSPSFQGQVTISADKSISTAYLQWSSLKASDTAMYYCARRKYSYTYDYFDYWGQGTLVTVSS
VL: QTVVTQEPSFSVSPGGTVTLTCGLSSGSVSTSYYPSWYQQTPGQAPRTLIYYTNTRSSGVPDRFSGSILGNKAALTITGAQADDESDYYCLLYMGPGISYVFGTGTKVTVL
notes: Fab made in E. coli: VH on CH1 with His6 and Flag tags (Plasmid A), VL on lambda CL (Plasmid E); also called H: KT TRV & L: LP S52Y
B11: Fab VH5-51_IGHD5-18*01>3_IGHJ4*01 G100K/G104T G24T/S28R/G35V & V3-4_IGLJ1*01 V91L/S96P S52P (Fab, V domains shown)
VH: EVQLVQSGAEVKKPGESLKISCKTSGYRFTSYWIVWVRQMPGKGLEWMGIIYPGDSDTRYSPSFQGQVTISADKSISTAYLQWSSLKASDTAMYYCARRKYSYTYDYFDYWGQGTLVTVSS
VL: QTVVTQEPSFSVSPGGTVTLTCGLSSGSVSTSYYPSWYQQTPGQAPRTLIYPTNTRSSGVPDRFSGSILGNKAALTITGAQADDESDYYCLLYMGPGISYVFGTGTKVTVL
notes: Fab made in E. coli: VH on CH1 with His6 and Flag tags (Plasmid A), VL on lambda CL (Plasmid E); also called H: KT TRV & L: LP S52P
B12: Fab VH5-51_IGHD5-18*01>3_IGHJ4*01 G100K/G104T G24T/S28R/G35V & V3-4_IGLJ1*01 V91L/S96P S52H (Fab, V domains shown)
VH: EVQLVQSGAEVKKPGESLKISCKTSGYRFTSYWIVWVRQMPGKGLEWMGIIYPGDSDTRYSPSFQGQVTISADKSISTAYLQWSSLKASDTAMYYCARRKYSYTYDYFDYWGQGTLVTVSS
VL: QTVVTQEPSFSVSPGGTVTLTCGLSSGSVSTSYYPSWYQQTPGQAPRTLIYHTNTRSSGVPDRFSGSILGNKAALTITGAQADDESDYYCLLYMGPGISYVFGTGTKVTVL
notes: Fab made in E. coli: VH on CH1 with His6 and Flag tags (Plasmid A), VL on lambda CL (Plasmid E); also called H: KT TRV & L: LP S52H
B13: Fab VH1-46_IGHD6-6*01_IGHJ1*01 S102A/S103P/S104F/H111F G56H & L6_IGKJ1*01 (Fab, V domains shown)
VH: QVQLVQSGAEVKKPGASVKVSCKASGYTFTSYYMHWVRQAPGQGLEWMGIINPSGHSTSYAQKFQGRVTMTRDTSTSTVYMELSSLRSEDTAVYYCAREEYAPFSAEYFQFWGQGTLVTVSS
VL: not shown
notes: Fab made in E. coli: VH on CH1 with His6 and Flag tags (Plasmid A), VL on kappa CL (Plasmid C); also called H: APFF G56H & L: wt

How the values were obtained:
[1] = biological target: T1, recombinant human DLL4 (Cat# 1506-D4/CF, R&D Systems) (human, UniProt Q9NR61 27-529); test: ELISA, DLL4 coated, Fab 25 nM
T1 construct: Bought protein; also called hDLL4; rHuman DLL4
Procedure: (§1) The plate was blocked by adding 1% BSA in Tris-buffered Saline Tween (TBST) and incubating for 1 hour at room temperature followed by washing 2 times with 150 μl TBST. A Fab antibody was serially diluted in 1% BSA in PBS. A 50 μl aliquot of each serial dilution was added, in triplicate, to each well and the plate was incubated for 1 hour at room temperature followed by washing 2 times with TBST. 50 μl of either goat anti-human kappa HRP conjugated secondary antibody (Cat # A7164-1 mL, Sigma-Aldrich) or goat anti-human lambda HRP conjugated secondary antibody (Cat # L1645-1 ml, Sigma-Aldrich), diluted 1:1000 in 1% BSA in PBS, was added to each well and the plate was incubated for 30 minutes at room temperature followed by washing 3 times with 200 μl TBST. Finally, 50 μl TMB one-component reagent (Cat # TMBW-1000-01, BioFax) was added and allowed to develop for 2 minutes at room temperature. The reaction was immediately halted by the addition of 50 μl 0.5M H₂SO₄ and the absorbance at 450 nm was measured using an ELISA plate reader.

[2] = biological target: T1, recombinant human DLL4 (Cat# …); test: ELISA, DLL4 coated, Fab 50 nM
Procedure: (§2) In this example, an ELISA binding assay was used to assess the dose-dependent binding of Fab antibodies to recombinant human DLL4 and recombinant mouse DLL4.
as §1

[3] = biological target: T1, recombinant human DLL4 (Cat# …); test: ELISA, DLL4 coated, Fab 100 nM
Procedure: as §2, §1

[4] = biological target: T1, recombinant human DLL4 (Cat# …); test: ELISA, DLL4 coated, Fab 12.5 nM
Procedure: as §2, §1

[5] = biological target: T1, recombinant human DLL4 (Cat# …); test: SPR (ProteOn), hDLL4 amine-coupled on chip
Procedure: In this example, the binding affinities of selected anti-DLL4 Fabs to recombinant human DLL4 (hDLL4, Cat# 1506-D4/CF, R&D Systems) were analyzed using Surface Plasmon Resonance (SPR) (Biosensor Tools, Salt Lake City, Utah). The Fabs analyzed include germline-derived antibodies and germline-modified DLL4 antibodies. Recombinant hDLL4 was immobilized on a SPR chip using amine coupling at three different surface densities. The Fabs were serially diluted 3-fold, with an initial concentration of 1 μM. Binding studies were run on a ProteOn system using a GLM sensor chip in 10 mM HEPES, pH 7.4, 150 mM NaCl, 0.01% Tween-20, and 0.1 mg/ml BSA at 25° C. The response data from each surface was globally fit to determine the binding constants.

Binder	ELISA absorbance at 450 nm [1] [A450]	ELISA absorbance at 450 nm [2] [A450]	ELISA absorbance at 450 nm [3] [A450]	ELISA absorbance at 450 nm [4] [A450]	Kd [5] [nM]	koff [5] [s⁻¹]	kon [5] [M⁻¹ s⁻¹]
B1	0.18	0.16	0.17	0.17	–	–	–
B2	0.67	0.81	0.96	0.47	–	–	–
B3	0.58	0.78	1.02	0.43	–	–	–
B4	0.86	0.9	1.05	0.65	–	–	–
B5	0.6	0.82	1.04	0.4	–	–	–
B6	0.62	0.79	0.99	0.41	–	–	–
B7	0.6	0.74	0.95	0.43	–	–	–
B8	0.79	1.03	1.23	0.56	–	–	–
B9	0.49	0.69	0.99	0.42	–	–	–
B10	0.56	0.72	0.9	0.41	–	–	–
B11	0.59	0.79	1	0.43	–	–	–
B12	0.73	0.91	1.09	0.5	–	–	–
B13	–	–	–	–	32.7	0.0101	351000
